The record followed here is publication PMC8960791 (2022).

In the assay the target is soluble HLA-E-VL9, HLA-E*01:03 heavy chain refolded with β2-microglobulin and synthetic VL9 peptide (human | ). As to the kind of experiment: SPR.

B1: 3H4 IgG, recombinant 3H4 in a human IgG1 backbone (antibody, V domains shown)
VH: EVQLQESGPELVKPGASVKIPCKASGYTFTDYNMDWVKQSHGKSLEWIGDINPNNGGTIYNQKFKGKATLTVDKSSSTAYMELRSLTSEDTAVYYCARPDYYGSSYGWYFDVWGTGTTVTVSS
VL: DIVITQSPSSMYASLGERVTITCKASQDINSYLSWFQQKPGKSPKTLIYRANRLVDGVPSRFSGSGSGQDYSLTISSLEYEDMGIYYCLQYDEFPLTFGAGTKLELK
For the molecule B1, the koff (commonly a measure of how fast the partners let go of each other) worked out at 0.51 s⁻¹.
